# Test results from PMC7906288.
# Where two headings read alike, the source gives them in different places.
# Assays:
# Test in all cases: native MS
# [1] = target: NISTmAb, recombinant humanized monoclonal IgG1 antibody (not stated | human (humanized antibody))
# [2] = target: SILu Lite SigmaMAb universal antibody standard human (MSQC4) (human)
# [3] = target: SILu Lite SigmaMAb universal antibody standard human (MSQC4) (human); remark: listed apart in the source
# [4] = target: SILu Lite SigmaMAb universal antibody standard human (MSQC4) (human); remark: listed apart in the source
stoichiometry N [1],stoichiometry N [2],stoichiometry N [3],stoichiometry N [4],Substance
2,,,,"NISTmAb, recombinant humanized monoclonal IgG1 antibody"
,2,2,2,SILu Lite SigmaMAb universal antibody standard human (MSQC4)
